Test results published in patent CN106928350A (TIANJIN INST IND BIOTECHNOLOGY CAS; SUZHOU GENEWIZ …, dated 2017).

Target: T1, HA of H3 (A/Aichi/2/1968)/PR8 H3N1 (PR8-RS) (Influenza A virus A/Aichi/2/1968 (H3), UniProt P03437 17-566)
T1 construct: whole, on cells; also called A/Aichi/2/1968 H3N1-RG
Test: immunofluorescence on virus-infected MDCK cells, antibody 40μg/mL

B1: AF4H1K1 (antibody, V domains shown)
VH: QVQLVESGGGVVQPGTSLRLSCEASGFTSSAYAMHWVRQAPGKGLEWVAVITFDGGYQYYADSVKGRFTISRDISRNTLHLHMNSLRAEDTAVYYCARDPLTKLLPFDWVSGGYFDYWGQGTLVTVSS
VL: not shown
notes: also called AF4H1K1 IgG; AF4H1K1IgG
binding result: binds
